From patent US12559745B2, “Methods and compositions for linking RNA stem loops” (THE REGENTS OF THE UNIVERSITY OF CALIFORNIA, priority 2020, dated 2026)
“And” between values parts separate entries of the source, which are not always exact repeats. Identical values can stand only once. “Also recorded” adds a separate entry of the source.

What was measured:
[1] = In vitro photo-cleavage (uncaging) assay, LED irradiation followed by denaturing PAGE; assay type: physicochemical
[2] = test system: 60 bp DNA substrate containing the sgRNA-9 target sequence; experiment: In vitro binding assay, Cas9-sgRNA-DNA ternary complex formation (native PAGE); conditions: pre-formed RNP plus 20 nM DNA substrate, 37° C., 90 seconds; 5% native TBE-PAGE
[3] = test system: DYRK1A genome locus; experiment: CRISPR-Cas9 gene editing in Cas9-expressing HEK-293 cells, INDEL rate by Sanger sequencing / ICE tool; assay type: cell-based; conditions: for gene editing activity (INDEL rate) of unmodified sgRNA: unmodified (linear) sgRNA with Tag sequence(s), transfected into Cas9-expressing HEK-293 cells, compared with wild-type sgRNA
From the text: We asked whether RNA-CLAMP could be used to control CRISPR-Cas9 editing via cyclization of the sgRNA. The sgRNA is highly structured when in complex with dCas9 and target DNA, forming three stem loops and one tetraloop, with some of the stem loops being tolerant to mutations.^[18] A sgRNA contains four stem-loops and two free ends (FIGS. 3A and 3B). We screened the 17-nt Tag recognition sequence (GCAGACUGUAAAUCUGC) (SEQ ID NO:1) at all 6 potential labeling sites within the sgRNA: insertion at the 5′-end (sgRNA-1) or 3′-end (sgRNA-6) and substituting the 17-nt Tag stem loop for either the tetra loop (sgRNA-2), stem loop 1 (sgRNA-3), stem loop 2 (sgRNA-4) or stem loop 3 (sgRNA-5) (FIG. 12). All the sgRNAs target the DYRK1A genome locus.^[32] To screen for activity, we transiently transfected the sgRNAs into HEK-293 cells stably expressing Cas9 protein. Three days after transfection, genomic DNA was harvested and the sgRNA targeted region was amplified by PCR. Sanger sequencing results were analyzed using the ICE tool to determine the INDEL rate, which is representative of the gene editing efficiency of the sgRNA.^[33]
To obtain optimal gene editing efficiency, we examined different Cas9 delivery approaches, including transfection or electroporation of Cas9 vector or mRNA, electroporation of Cas9-sgRNA RNP complex and sequential transfection of Cas9-mRNA and sgRNA. The gene editing efficiency varies from 20% INDEL to 80% INDEL with different delivery strategies. We constructed an engineered mammalian single-colony HEK-293 cell line that stably expresses Cas9 enzyme using the lentiviral approach. To quantify the activity of sgRNA, we delivered sgRNA1 to sgRNA6 into the HEK-293-Cas9 cells using lipofectamine RNAiMAX. One day after transfection, culturing medium was exchanged with fresh full-growth medium (DMEM with 10% FBS). Three days after transfection, genomic DNA was extracted from the cells, following by PCR amplification of the sgRNA targeted region. The PCR amplified DNA fragments were further analyzed by either the T7E1 nuclease digestion assay or by Sanger sequencing to quantify gene knockouts efficiency of the targeted region.^25,26 […]
Gene editing experiments were performed following previously reported protocols.^[2] For gene editing experiments using HEK-293-Cas9 cell line, 250 ng sgRNA and 0.5 μL Lipofectamine RNAiMAX were used to form the Lipo-RNA complex. The formed complex was added with 150 μL DMEM (10% FBS) containing 40K HEK-293-Cas9 cells. The transfection was performed in a 96-well plate format. 24 hours after transfection, cell medium was changed to complete DMEM medium. At day 4, genomic DNA was extracted using 80 μL QuickExtract™ DNA Extraction Solution (Lucigen, catalog number: QE09050). Following the manufacturer's protocol, the extraction solution was heated at 65° C. for 15 minutes and then at 95° C. for another 15 minutes. The resulting solution was diluted using water at a 1:10 ratio. The diluted product was directly used as a template for PCR amplification of the genomic region. For PCR amplification of the genomic region, Q5 HOTSTART HIFI DNA polymerase 2× master mix was used following the manufacturer's protocol without further optimization. The primers used for amplifying the DYRK1A and GRIN2B genome locus are listed below.
Crude PCR products were column purified using a Zymo DNA purification kit. The purified PCR amplicon was analyzed by Sanger sequencing to estimate INDEL % using the ICE tool.^[3] The wt-sgRNA gene editing INDEL % was usually around 70-80% following this protocol.

[4] = test system: HEK-293 cells; experiment: Gene editing in HEK-293 wild-type cell line with Cas9 mRNA transfected one day before sgRNA; assay type: cell-based; conditions: HEK-293 wild-type cells, Cas9 mRNA transfection; usual value
Experimental: For gene editing experiments performed using a HEK-293 wild-type cell line, mRNA encoding the Cas9 protein (Trilink, catalog number L-7206-20) was transfected into HEK-293 cells one day prior to sgRNA transfection. For mRNA transfection, Lipo-RNA complex was formed by using 500 ng mRNA, 0.9 μL Lipofectamine RNAiMAX in 50 μL total volume, combined with 150 μL DMEM complete medium containing 40K HEK-293 cells. At day 2, sgRNA transfection was performed following the protocol described in the previous section. The wt-sgRNA gene editing INDEL % was usually around 40-50% following this protocol.

[5] = target: T1, Cas9 protein (Streptococcus pyogenes serotype M1, UniProt Q99ZW2); experiment: In vitro binding assay, Cas9-sgRNA RNP formation (gel shift, native PAGE); conditions: 200 nM Cas9, 200 nM sgRNA
T1 construct: purchased NEB M0646T

With `CCN(CC)c1ccc2c(C(CCCn3cc(COCCC(=O)NCCCCCCNCc4c[nH]c5nc(N)[nH]c(=O)c45)nn3)OC(=O)NCCCCCCNCc3c[nH]c4nc(N)[nH]c(=O)c34)cc(=O)oc2c1` (stereo not drawn) [preQ1-DEACM-preQ1] the “wavelength of light that photo-cleaves the linker” value [1] was 405-456 nm.

With “sgRNA-12: sgRNA targeting the sequence between the mCherry and GFP genes of the surrogate reporter, SEQ ID NO:40 (guide GTTCAGGGCTTGACCAACAC; listed as DNA, chemistry not fully specified)” the “formation of Cas9-sgRNA-DNA ternary complex” value [2] was “no Cas9-sgRNA-DNA complex was observed”.

In the case of `COc1cc(C(C)OC(=O)NCCCCCCNCc2c[nH]c3nc(N)[nH]c(=O)c23)c([N+](=O)[O-])cc1OCCCC(=O)NCCOCCOCCOCCOCc1cn(CC(=O)NCCCCCCNCc2c[nH]c3nc(N)[nH]c(=O)c23)nn1` (stereo not drawn) [preQ1-NB-preQ1], the “wavelength of light that photo-cleaves the linker” value [1] is reported as 356-390 nm and 390 nm.

B1: sgRNA-7: sgRNA with two Tag sequences inserted at both the tetraloop and stem loop 2, SEQ ID NO:15 (nucleic acid)
guide: NNNNNNNNNNNNNNNNNNNNGTTTTAGAGCTAGCAGACTGTAAATCTGCTAGCAAGTTAAAATAAGGCTAGTCCGTTATCAACTTGCAGACTGTAAATCTGCAAGTGGCACCGAGTCGGTGC
modifications: listed as DNA, chemistry not given here
In the case of B1, the “integrity of unlabeled sgRNA under 456 nm irradiation” value ([1]; 456 nm LED, 3 minutes) is reported as “harmless to the integrity”, the INDELs ([3]; HEK-293 cells, clamped with preQ1-PEG10-preQ1 and gel purified, versus unmodified (linear) form) is reported as 80.7% and the “gene editing activity (INDEL rate) of unmodified sgRNA” value (“gene editing activity (INDEL rate)” for short) [3] is reported as “wild-type level gene editing activity; also recorded: did not compromise gene editing activity”.

B2: sgRNA-1: sgRNA with 17-nt Tag inserted at the 5′-end, SEQ ID NO:9 (nucleic acid)
guide: GCAGACTGTAAATCTGCTTTTNNNNNNNNNNNNNNNNNNNNGTTTTAGAGCTAGAAATAGCAAGTTAAAATAAGGCTAGTCCGTTATCAACTTGAAAAAGTGGCACCGAGTCGGTGC
modifications: listed as DNA, chemistry not given here
In the case of B2, the “gene editing activity (INDEL rate)” value [3] is reported as “significantly reduced activity”.

B3: wt-sgRNA: wild-type single-guide RNA, SEQ ID NO:8 (nucleic acid)
guide: CTAATACGACTCACTATANNNNNNNNNNNNNNNNNNNNGTTTTAGAGCTAGAAATAGCAAGTTAAAATAAGGCTAGTCCGTTATCAACTTGAAAAAGTGGCACCGAGTCGGTGCTTTTTT
modifications: target site or template, no part of the molecule; listed as DNA, chemistry not given here
With B3 the “gene editing INDEL %” value ([3]; HEK-293-Cas9 cell line protocol, usual value) was 70-80% and the “gene editing INDEL %” value [4] was 40-50%.

B4: sgRNA-4: sgRNA with 17-nt Tag stem loop substituted for stem loop 2, SEQ ID NO:12 (nucleic acid)
guide: NNNNNNNNNNNNNNNNNNNNGTTTTAGAGCTAGAAATAGCAAGTTAAAATAAGGCTAGTCCGTTATCAACTTGCAGACTGTAAATCTGCAAGTGGCACCGAGTCGGTGC
modifications: listed as DNA, chemistry not given here
For B4, the “gene editing activity (INDEL rate)” value [3] was “wild-type level gene editing activity; also recorded: retained wild-type level activity”.

B5: sgRNA-9: sgRNA-7 with Tag stems truncated by 4 base pairs, SEQ ID NO:17; targets DYRK1A (nucleic acid)
guide: NNNNNNNNNNNNNNNNNNNNGTTTTAGAGCTAACTGTAAATTAGCAAGTTAAAATAAGGCTAGTCCGTTATCAACTTACTGTAAATAAGTGGCACCGAGTCGGTGC
modifications: chemistry not given here
notes: targets DYRK1A
With B5 the “formation of Cas9-sgRNA RNP” value [5] was “observed; also recorded: detected in lane 4” and the “formation of Cas9-sgRNA-DNA ternary complex” value [2] was “observed the formation of the Cas9-sgRNA-DNA ternary complex; also recorded: detected in lane 5”.

B6: sgRNA-3: sgRNA with 17-nt Tag stem loop substituted for stem loop 1, SEQ ID NO:11 (nucleic acid)
guide: NNNNNNNNNNNNNNNNNNNNGTTTTAGAGCTAGAAATAGCAAGTTAAAATAAGGCGCAGACTGTAAATCTGCGTCCGTTATCAACTTGAAAAAGTGGCACCGAGTCGGTGC
modifications: listed as DNA, chemistry not given here
In the case of B6, the “gene editing activity (INDEL rate)” value [3] is reported as “significantly reduced activity”.

B7: sgRNA-5: sgRNA with 17-nt Tag stem loop substituted for stem loop 3, SEQ ID NO:13 (nucleic acid)
guide: NNNNNNNNNNNNNNNNNNNNGTTTTAGAGCTAGAAATAGCAAGTTAAAATAAGGCTAGTCCGTTATCAACTTGAAAAAGTGGCACCGAGCAGACTGTAAATCTGCTCGGTGC
modifications: listed as DNA, chemistry not given here
With B7 the “gene editing activity (INDEL rate)” value [3] was “significantly reduced activity”.

B8: sgRNA-2: sgRNA with 17-nt Tag stem loop substituted for the tetra loop, SEQ ID NO:10 (nucleic acid)
guide: NNNNNNNNNNNNNNNNNNNNGTTTTAGAGCTAGCAGACTGTAAATCTGCTAGCAAGTTAAAATAAGGCTAGTCCGTTATCAACTTGAAAAAGTGGCACCGAGTCGGTGC
modifications: listed as DNA, chemistry not given here
For B8, the “gene editing activity (INDEL rate)” value [3] was “wild-type level gene editing activity; also recorded: retained wild-type level activity”.
